Measured values reported in the supplement of paper PMC10567573.
± gives the standard deviation.

Assay: protein stability index of a GFP-peptide fusion (GPS, HEK-293T) (PSI 1-6); higher = more stable
Settings: c terminus: a fixed tail appended
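Further: 24-mer peptide tiles fused after GFP, lentivirally expressed, FACS-sorted into six equal bins by GFP/DsRed ratio, decoded by Illumina sequencing, PSI is the read-weighted mean bin number.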

Sequence | protein stability index (treatment: DMSO) | protein stability index (treatment: MLN4924 1 uM, 8 h)
LVLKAHHDIVRFLVQLDDYRFASA [WDR41] | 2.96 ± 0.52 | 2.96 ± 0.67
LVQLRGRLTSQDWERVHLIVAGGY [ALG2] | 2.03 ± 0.62 | 2.44 ± 0.58
LVSQSNDLSSLRAKYPHDVVNHLS [SPACA9] | 3.09 ± 0.19 | 3.19 ± 0.21
LWENTRFTDCSFFVRGQEFKAHKS [SPOPL] | 2.74 ± 0.32 | 2.98 ± 0.25
LWSLFVPFTVYQVRWLRPVHRQLG [AUP1] | 2.82 ± 0.59 | 2.59 ± 0.69
LYIQSHYQLELQCCIDWTHVTDPL [SMG5] | 3.31 ± 0.46 | 3.06 ± 0.42
LYYFRLAARSPQGLGASTAEISAR [PTPRD] | 2.34 ± 0.42 | 2.33 ± 0.39
MAEPSAATQSHSISSSSFGAEPSA [RTN3] | 5.06 ± 0.096 | 5.17 ± 0.13
MAGLQRLASHLPVGVMLPHNTTEA [ZC2HC1C] | 3.5 ± 0.13 | 3.36 ± 0.27
MAHGYGEESEEERGLEPGKGRHHR [CHGB] | 5.22 ± 0.27 | 5.34 ± 0.11
MDALQLANSAFAVDLFKQLCEKEP [SERPINB5] | 3.5 ± 0.36 | 3.53 ± 0.16
MDVPGPVSRRAAAAAATVLLRTAR [SLC19A2] | 3.29 ± 0.23 | 3.42 ± 0.089
MECQPESSISHRFHKDCASRVNNA [EHMT1] | 4.28 ± 0.38 | 4.15 ± 0.39
MERVNETVVREVIFLGFSSLARLQ [OR10K2] | 2.64 ± 0.65 | 2.4 ± 0.5
MFPLHLAALNAHSDCCRKLLSSGF [ANKRD44] | 2.57 ± 0.4 | 2.15 ± 0.31
MGHIKPDLIDVDLIRGSTFAKAKP [PHTF1] | 3.56 ± 0.24 | 3.67 ± 0.35
MHKHNETSQKIAARAFAQRYLADL [RSPH3] | 2.63 ± 0.094 | 2.84 ± 0.22
MIVDLLSEKKTISFQGCMAQLFMD [OR4A15] | 2.74 ± 0.52 | 2.42 ± 0.46
MKMEEAVGKVEELIESEAPPKASE [C18orf25] | 5.59 ± 0.15 | 5.48 ± 0.57
MKRSKELITKNHSQEETSILRCWK [RNF180] | 3.11 ± 0.24 | 3.19 ± 0.058
MLGKYNTPVSYRMAKTLVFSKVKT [ACSBG2] | 2.46 ± 0.31 | 2.35 ± 0.23
MLLQHQICKEVQAEQEPTRKLFEV [SPAG8] | 2.79 ± 0.26 | 2.78 ± 0.23

Sequence | protein stability index (treatment: DMSO) | protein stability index (treatment: MLN4924 1 uM, 8 h)
MLPGVLAGVSAEESWAGPQPLETL [SCNN1D] | 3.38 ± 0.34 | 3.53 ± 0.37
MMHGGSYSLTTSSTHKRSSLRKVK [RAB40B] | 4.15 ± 0.25 | 4.35 ± 0.15
MPPATGGGLAESELRPRRGRCGPQ [POMT2] | 4.59 ± 0.17 | 4.61 ± 0.18
MQNGAGASRTSTIFLNGNRERPLN [TNXB] | 3.7 ± 0.49 | 4.06 ± 0.2
MSQALKATFSGFKKEQRRLGIPKN [ETS2] | 2.98 ± 0.29 | 3.08 ± 0.3
MSSVQQQPPPPRRVTNVGSLLLTP [WASL] | 3.7 ± 0.28 | 3.75 ± 0.3
MTEAALALSEQKAQDLGELLATAE [LRRC45] | 5.16 ± 0.13 | 5.08 ± 0.13
MTTHPLTNNNIKQRLIKKVQEAVL [GOLPH3] | 2.79 ± 0.65 | 2.65 ± 0.59
MTVEEIYKDRQKFSEQVFKVASSD [FLOT1] | 3.83 ± 0.21 | 3.61 ± 0.31
MYEMLIGYPPFCSETPQETYRKVM [STK38L] | 2.2 ± 0.33 | 2.1 ± 0.3
NAAYFVGKWMKKFPESETKECPFR [SERPINB5] | 2.77 ± 0.29 | 2.98 ± 0.47
NEIESRHRELLRLESRIRDVHELF [STX11] | 3.54 ± 0.21 | 3.65 ± 0.22
NFFNQVLMLGKTSISDLSEHVFDL [PDS5B] | 2.56 ± 0.54 | 2.63 ± 0.32
NFSQPVAGRPSLLRHDEVRTYFHE [NLN] | 3.36 ± 0.61 | 3.33 ± 0.31
NGISPIIIDNTNLHAWEMKPYAVM [N4BP2L1] | 2.46 ± 0.37 | 2.01 ± 0.25
NGTGDSNDFWRIEVVNRKFGNRIK [POMT2] | 3.25 ± 0.26 | 3.46 ± 0.41
NHEEDAGVRCNTPAMGLQKKLRLN [LOXL2] | 4.64 ± 0.12 | 4.5 ± 0.36
NISDADVHNAMDNYECNLYTFLYL [FEM1B] | 2.25 ± 0.66 | 2.42 ± 0.45
NKHLFYAEDFSTMDEISEKLKKGI [MATN2] | 3.79 ± 0.36 | 3.76 ± 0.39
NKTQQVIHIIDFGLAKEYIDPETK [CSNK1G3] | 2.48 ± 0.52 | 2.47 ± 0.41
NLITTVTPEKKAEEERDEEEDKRR [EPB41L3] | 5.61 ± 0.35 | 5.56 ± 0.2
NLSLVCLPRSEDDDCDDDDDDAQI [DRICH1] | 5.42 ± 0.28 | 5.5 ± 0.26

Sequence | protein stability index (treatment: DMSO) | protein stability index (treatment: MLN4924 1 uM, 8 h)
NNFREYNLHRVAAHELGHSLGLSH [MMP1] | 2.85 ± 0.22 | 3.01 ± 0.13
NNQITCRNGQWSEPPKCLDPCVIS [CFHR2] | 3.34 ± 0.2 | 3.32 ± 0.25
NQHCLDTAFNFFKMAVSRHLTRGR [BRF1] | 2.19 ± 0.12 | 2.25 ± 0.22
NQHDTEMKYYIVHLKRHFMFRNHL [DYRK1B] | 2.45 ± 0.23 | 2.3 ± 0.15
NSEVYLPNINKISMQAVLDYLYTK [RHOBTB1] | 2.17 ± 0.29 | 2.35 ± 0.16
NSHFSLNVKTLKDGKPFPELVLEQ [PCDHGC5] | 3.42 ± 0.18 | 3.76 ± 0.27
NSLAALDLSGIQTSDAAFLTQWKD [ZER1] | 4.25 ± 0.2 | 4.29 ± 0.23
NSRFQMLFTSFQEPPCEGNTFFCH [NETO1] | 2.23 ± 0.45 | 2.23 ± 0.11
NSSGDFSQAHSTLKLANHQRPVSR [TRAF3IP2] | 4.43 ± 0.32 | 4.63 ± 0.38
NTEEQLEIALAPYQHLEEDMKSLK [MTUS2] | 4.78 ± 0.17 | 4.8 ± 0.28
NTRVRELAQAAGFAPQTGARPSET [DNAAF3] | 4.71 ± 0.11 | 4.79 ± 0.25
NVDDPTGAHSNAPITAHAEVEVVE [CSNK1G1] | 5.35 ± 0.61 | 5.39 ± 0.47
PAAAPEGDWARLLEQMGALAVRGS [ZBED3] | 3.62 ± 0.3 | 3.59 ± 0.37
PAEGEGRLGRCMRRLRDMVERPHS [KCNG1] | 4.17 ± 0.14 | 4.11 ± 0.35
PAGFRVSTLGTLQPPPAPPKKIMP [PPFIA4] | 4.14 ± 0.42 | 4.07 ± 0.43
PAIVEAGGMQALGLHLTDPSQRLV [CTNNB1] | 3.79 ± 0.23 | 3.83 ± 0.15
PAPLCGGPSAEAYLLHPAAFHGAP [TBX6] | 2.82 ± 0.34 | 2.95 ± 0.27
PARAPPEPPHNLFCAPGSWEWNEL [SERTAD3] | 3.36 ± 0.3 | 3.32 ± 0.32
PARTVLVGSLSWLRKQLQPTHCKY | 2.38 ± 0.43 | 2.19 ± 0.098
PASQAASSSSASADLLAGFGGSFM [SNAP91] | 3.89 ± 0.24 | 3.73 ± 0.12
PCASLLAFASTCLLSRFSVGIFHL [TMEM175] | 3.43 ± 0.076 | 3 ± 0.3
